Laboratory results taken from the supplement of paper PMC9112550, “Optimization of the antimicrobial peptide Bac7 by deep mutational scanning” (BMC Biology, 2022).

Tested on: Escherichia coli TOP10
Assay: shrunken log2 fold change of peptide-encoding DNA abundance (4.5 h post-induction vs induction); higher = less antimicrobial activity (less host growth inhibition)
Settings: time post-induction: 4.5 h; library: site-saturation at positions 5, 18, 19, 20
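Also: peptides expressed intracellularly from a pBAD plasmid library in pooled LB shake-flask culture, induced with 0.3% L-arabinose, DNA abundance read by NGS, three biological replicates, DESeq2 with apeglm shrinkage.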

| Sequence | shrunken log2 fold change |
| --- | --- |
| RRIRARPPRLPRPRPRPRGTPRP | 0.448 |
| RRIRSRPPRLPRPRPRPWWGPRP | 0.0289 |
| RRIRSRPPRLPRPRPRPNLSPRP | -0.425 |
| RRIRFRPPRLPRPRPRPSPNPRP | -0.399 |
| RRIRDRPPRLPRPRPRPIENPRP | -0.144 |
| RRIRDRPPRLPRPRPRPHCFPRP | 0.00117 |
| RRIRHRPPRLPRPRPRPRQTPRP | 0.0257 |
| RRIRDRPPRLPRPRPRPCCHPRP | 0.0218 |
| RRIRQRPPRLPRPRPRPQVIPRP | -0.0697 |
| RRIRPRPPRLPRPRPRPFMNPRP | -0.198 |
| RRIRCRPPRLPRPRPRPAKEPRP | -0.0092 |
| RRIRSRPPRLPRPRPRPCRIPRP | -0.263 |
| RRIRGRPPRLPRPRPRPYPGPRP | -0.0165 |
| RRIRIRPPRLPRPRPRPGKSPRP | -0.0715 |
| RRIRWRPPRLPRPRPRPEPGPRP | 0.43 |
| RRIRERPPRLPRPRPRPMQTPRP | 0.0432 |
| RRIRRRPPRLPRPRPRPNMGPRP | -0.108 |
| RRIRVRPPRLPRPRPRPDQDPRP | 0.0425 |
| RRIRLRPPRLPRPRPRPEANPRP | 0.075 |
| RRIRMRPPRLPRPRPRPWNYPRP | -0.203 |
| RRIRYRPPRLPRPRPRPRLDPRP | -0.176 |
| RRIRFRPPRLPRPRPRPPCYPRP | -0.227 |
| RRIRKRPPRLPRPRPRPAQHPRP | 0.65 |

| Sequence | shrunken log2 fold change |
| --- | --- |
| RRIRWRPPRLPRPRPRPFDWPRP | 0.344 |
| RRIRSRPPRLPRPRPRPEGCPRP | 0.0128 |
| RRIRVRPPRLPRPRPRPVYHPRP | -0.544 |
| RRIRQRPPRLPRPRPRPEDGPRP | 0.154 |
| RRIRMRPPRLPRPRPRPWLWPRP | 0.0882 |
| RRIRNRPPRLPRPRPRPPPGPRP | 0.863 |
| RRIRSRPPRLPRPRPRPQVSPRP | -0.236 |
| RRIRSRPPRLPRPRPRPENQPRP | -0.0853 |
| RRIRQRPPRLPRPRPRPPSMPRP | -0.234 |
| RRIRRRPPRLPRPRPRPRYQPRP | 0.0511 |
| RRIRYRPPRLPRPRPRPKAVPRP | -0.163 |
| RRIRSRPPRLPRPRPRPYNWPRP | -0.0406 |
| RRIRYRPPRLPRPRPRPMWDPRP | 0.0162 |
| RRIRIRPPRLPRPRPRPKKDPRP | -0.602 |
| RRIRDRPPRLPRPRPRPSSEPRP | 0.186 |
| RRIRNRPPRLPRPRPRPKWSPRP | 0.0717 |
| RRIRQRPPRLPRPRPRPAHFPRP | 0.464 |
| RRIRHRPPRLPRPRPRPKSTPRP | -0.0868 |
| RRIRKRPPRLPRPRPRPKCTPRP | 0.0297 |
| RRIRYRPPRLPRPRPRPGYEPRP | 0.026 |
| RRIRARPPRLPRPRPRPGNLPRP | -0.232 |
| RRIRWRPPRLPRPRPRPMRVPRP | 1.03 |
| RRIRWRPPRLPRPRPRPYSDPRP | -0.381 |

| Sequence | shrunken log2 fold change |
| --- | --- |
| RRIRIRPPRLPRPRPRPGVAPRP | 0.276 |
| RRIRFRPPRLPRPRPRPCKTPRP | 0.00592 |
| RRIRLRPPRLPRPRPRPLMMPRP | -0.164 |
| RRIRSRPPRLPRPRPRPEFQPRP | 0.161 |
| RRIRFRPPRLPRPRPRPCWSPRP | -0.443 |
| RRIRKRPPRLPRPRPRPAGTPRP | 0.992 |
| RRIRGRPPRLPRPRPRPLSAPRP | 0.507 |
| RRIRHRPPRLPRPRPRPAQVPRP | -0.0333 |
| RRIRKRPPRLPRPRPRPDGKPRP | 0.0268 |
| RRIRLRPPRLPRPRPRPDGWPRP | 0.257 |
| RRIRGRPPRLPRPRPRPTFAPRP | 0.997 |
| RRIRQRPPRLPRPRPRPAEHPRP | 0.166 |
| RRIRQRPPRLPRPRPRPMKHPRP | -0.373 |
| RRIRVRPPRLPRPRPRPVHYPRP | -0.0353 |
| RRIRPRPPRLPRPRPRPWICPRP | -0.182 |
| RRIRFRPPRLPRPRPRPHQSPRP | -0.114 |
| RRIRPRPPRLPRPRPRPIEMPRP | 0.00861 |
| RRIRRRPPRLPRPRPRPVSSPRP | 0.0647 |
| RRIRWRPPRLPRPRPRPTDFPRP | -0.149 |
| RRIRCRPPRLPRPRPRPYRKPRP | -0.49 |
| RRIRYRPPRLPRPRPRPAGPPRP | -0.0366 |
| RRIRSRPPRLPRPRPRPMVYPRP | -0.111 |
| RRIRCRPPRLPRPRPRPNIFPRP | -0.432 |

| Sequence | shrunken log2 fold change |
| --- | --- |
| RRIRTRPPRLPRPRPRPWYSPRP | -0.818 |
| RRIRHRPPRLPRPRPRPNQNPRP | -0.285 |
| RRIRSRPPRLPRPRPRPMGWPRP | 0.358 |
| RRIRDRPPRLPRPRPRPQERPRP | 0.0671 |
| RRIRPRPPRLPRPRPRPAACPRP | 0.103 |
| RRIRSRPPRLPRPRPRPSIMPRP | -0.196 |
| RRIRRRPPRLPRPRPRPLYPPRP | -0.0452 |
| RRIRVRPPRLPRPRPRPDVCPRP | 0.0951 |
| RRIRSRPPRLPRPRPRPDWYPRP | -0.3 |
| RRIRRRPPRLPRPRPRPAPNPRP | 0.976 |
| RRIRWRPPRLPRPRPRPDFAPRP | 0.49 |
| RRIRGRPPRLPRPRPRPCWAPRP | 0.485 |
| RRIRMRPPRLPRPRPRPLAVPRP | 0.328 |
| RRIRRRPPRLPRPRPRPWGNPRP | 0.352 |
| RRIRWRPPRLPRPRPRPHMSPRP | 0.033 |
| RRIRWRPPRLPRPRPRPRMFPRP | 0.182 |
| RRIRNRPPRLPRPRPRPVQGPRP | 0.295 |
| RRIRERPPRLPRPRPRPFNTPRP | -0.124 |
| RRIRSRPPRLPRPRPRPCHNPRP | -0.364 |
| RRIRPRPPRLPRPRPRPKTPPRP | 0.0677 |
| RRIRTRPPRLPRPRPRPIKAPRP | -0.143 |
| RRIRDRPPRLPRPRPRPEPEPRP | 0.579 |
